# T1: EsCas13d, nuclease-dead (Eubacterium siraeum, UniProt B0MS50, R295A;H300A;R849A;H854A)
# T1 sequence: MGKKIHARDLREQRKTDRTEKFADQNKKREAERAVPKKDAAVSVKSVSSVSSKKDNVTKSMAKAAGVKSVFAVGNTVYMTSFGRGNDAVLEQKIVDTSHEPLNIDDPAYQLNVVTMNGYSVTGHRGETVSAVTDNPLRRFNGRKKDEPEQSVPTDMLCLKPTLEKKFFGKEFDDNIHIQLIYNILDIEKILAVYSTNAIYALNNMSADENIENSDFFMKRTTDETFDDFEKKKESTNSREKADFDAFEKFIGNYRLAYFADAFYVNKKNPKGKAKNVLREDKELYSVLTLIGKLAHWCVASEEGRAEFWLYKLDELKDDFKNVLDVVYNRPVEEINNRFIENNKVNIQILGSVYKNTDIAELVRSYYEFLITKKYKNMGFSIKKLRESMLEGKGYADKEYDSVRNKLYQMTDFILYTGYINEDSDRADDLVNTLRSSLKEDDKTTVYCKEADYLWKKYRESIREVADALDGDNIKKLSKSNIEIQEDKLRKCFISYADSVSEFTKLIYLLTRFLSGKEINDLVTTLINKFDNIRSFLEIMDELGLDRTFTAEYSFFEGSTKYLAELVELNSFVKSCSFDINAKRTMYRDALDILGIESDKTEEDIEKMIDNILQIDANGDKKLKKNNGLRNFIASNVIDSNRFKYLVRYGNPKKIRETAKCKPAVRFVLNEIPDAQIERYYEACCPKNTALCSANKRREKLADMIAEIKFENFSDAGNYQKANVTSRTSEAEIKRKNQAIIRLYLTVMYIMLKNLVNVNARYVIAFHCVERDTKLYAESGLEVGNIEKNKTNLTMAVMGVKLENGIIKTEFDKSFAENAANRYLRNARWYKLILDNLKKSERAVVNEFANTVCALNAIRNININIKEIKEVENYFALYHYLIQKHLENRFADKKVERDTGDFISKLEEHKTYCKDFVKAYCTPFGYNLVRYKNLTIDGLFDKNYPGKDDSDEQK
# B1: target 1 G5U,C6G (mixed)
# RNA 1: CACCCGUGCAAAAAUGCAGGGGUCUAAAACUGAGCGGAUAACCUCUCUAUGG
# RNA 2: GGGAAUGGAUCCACAUCUACGAAUUCGUACCAUAGAGAGGUUAUCGUCUCACCGAGAUCGGAAGAGCACACGU
# B2: target 1 C6U,A14U (mixed)
# RNA 1: CACCCGUGCAAAAAUGCAGGGGUCUAAAACUGAGCGGAUAACCUCUCUAUGG
# RNA 2: GGGAAUGGAUCCACAUCUACGAAUUCGUACCAUAGAGUGGUUAUCUGCUCACCGAGAUCGGAAGAGCACACGU
# B3: target 1 U8C,G12A (mixed)
# RNA 1: CACCCGUGCAAAAAUGCAGGGGUCUAAAACUGAGCGGAUAACCUCUCUAUGG
# RNA 2: GGGAAUGGAUCCACAUCUACGAAUUCGUACCAUAGAGAGAUUACCCGCUCACCGAGAUCGGAAGAGCACACGU
# B4: target 1 insC 3' of 8,insC 3' of 3 (mixed)
# RNA 1: CACCCGUGCAAAAAUGCAGGGGUCUAAAACUGAGCGGAUAACCUCUCUAUGG
# RNA 2: GGGAAUGGAUCCACAUCUACGAAUUCGUACCAUAGAGAGGUUAUCCCGCUCCACCGAGAUCGGAAGAGCACACGU
# B5: target 2 MT 5'PFS UAA 3'PFS AGA (mixed)
# RNA 1: CACCCGUGCAAAAUUGCAGGGGUCUAAAACCUUCUCCAAAUUGUUUCAUCCU
# RNA 2: GGGAAUGGAUCCACAUCUACGAAUUCUAAAGGAUGAAACAAUUUGGAGAAGAGAAGAUCGGAAGAGCACACGU
# B6: target 2 MT 5'PFS CUG 3'PFS UCA (mixed)
# RNA 1: CACCCGUGCAAAAUUGCAGGGGUCUAAAACCUUCUCCAAAUUGUUUCAUCCU
# RNA 2: GGGAAUGGAUCCACAUCUACGAAUUCCUGAGGAUGAAACAAUUUGGAGAAGUCAAGAUCGGAAGAGCACACGU
# B7: target 2 MT 5'PFS CUG 3'PFS UCG (mixed)
# RNA 1: CACCCGUGCAAAAUUGCAGGGGUCUAAAACCUUCUCCAAAUUGUUUCAUCCU
# RNA 2: GGGAAUGGAUCCACAUCUACGAAUUCCUGAGGAUGAAACAAUUUGGAGAAGUCGAGAUCGGAAGAGCACACGU
# B8: target 2 MT 5'PFS UAU 3'PFS UAG (mixed)
# RNA 1: CACCCGUGCAAAAUUGCAGGGGUCUAAAACCUUCUCCAAAUUGUUUCAUCCU
# RNA 2: GGGAAUGGAUCCACAUCUACGAAUUCUAUAGGAUGAAACAAUUUGGAGAAGUAGAGAUCGGAAGAGCACACGU
# B9: target 2 MT 5'PFS GUC 3'PFS CGA (mixed)
# RNA 1: CACCCGUGCAAAAUUGCAGGGGUCUAAAACCUUCUCCAAAUUGUUUCAUCCU
# RNA 2: GGGAAUGGAUCCACAUCUACGAAUUCGUCAGGAUGAAACAAUUUGGAGAAGCGAAGAUCGGAAGAGCACACGU
# B10: target 2 MT 5'PFS AUA 3'PFS ACC (mixed)
# RNA 1: CACCCGUGCAAAAUUGCAGGGGUCUAAAACCUUCUCCAAAUUGUUUCAUCCU
# RNA 2: GGGAAUGGAUCCACAUCUACGAAUUCAUAAGGAUGAAACAAUUUGGAGAAGACCAGAUCGGAAGAGCACACGU
# B11: target 2 MT 5'PFS AUA 3'PFS ACA (mixed)
# RNA 1: CACCCGUGCAAAAUUGCAGGGGUCUAAAACCUUCUCCAAAUUGUUUCAUCCU
# RNA 2: GGGAAUGGAUCCACAUCUACGAAUUCAUAAGGAUGAAACAAUUUGGAGAAGACAAGAUCGGAAGAGCACACGU
# B12: target 2 MT 5'PFS UAC 3'PFS CGA (mixed)
# RNA 1: CACCCGUGCAAAAUUGCAGGGGUCUAAAACCUUCUCCAAAUUGUUUCAUCCU
# RNA 2: GGGAAUGGAUCCACAUCUACGAAUUCUACAGGAUGAAACAAUUUGGAGAAGCGAAGAUCGGAAGAGCACACGU
# B13: target 2 MT 5'PFS UAA 3'PFS AGG (mixed)
# RNA 1: CACCCGUGCAAAAUUGCAGGGGUCUAAAACCUUCUCCAAAUUGUUUCAUCCU
# RNA 2: GGGAAUGGAUCCACAUCUACGAAUUCUAAAGGAUGAAACAAUUUGGAGAAGAGGAGAUCGGAAGAGCACACGU
# B14: target 2 MT 5'PFS GUC 3'PFS CGU (mixed)
# RNA 1: CACCCGUGCAAAAUUGCAGGGGUCUAAAACCUUCUCCAAAUUGUUUCAUCCU
# RNA 2: GGGAAUGGAUCCACAUCUACGAAUUCGUCAGGAUGAAACAAUUUGGAGAAGCGUAGAUCGGAAGAGCACACGU
# B15: target 2 MT 5'PFS UAC 3'PFS CGC (mixed)
# RNA 1: CACCCGUGCAAAAUUGCAGGGGUCUAAAACCUUCUCCAAAUUGUUUCAUCCU
# RNA 2: GGGAAUGGAUCCACAUCUACGAAUUCUACAGGAUGAAACAAUUUGGAGAAGCGCAGAUCGGAAGAGCACACGU
# B16: target 2 MT 5'PFS UAC 3'PFS CGG (mixed)
# RNA 1: CACCCGUGCAAAAUUGCAGGGGUCUAAAACCUUCUCCAAAUUGUUUCAUCCU
# RNA 2: GGGAAUGGAUCCACAUCUACGAAUUCUACAGGAUGAAACAAUUUGGAGAAGCGGAGAUCGGAAGAGCACACGU
# B17: target 2 MT 5'PFS AUA 3'PFS ACU (mixed)
# RNA 1: CACCCGUGCAAAAUUGCAGGGGUCUAAAACCUUCUCCAAAUUGUUUCAUCCU
# RNA 2: GGGAAUGGAUCCACAUCUACGAAUUCAUAAGGAUGAAACAAUUUGGAGAAGACUAGAUCGGAAGAGCACACGU
# B18: target 2 MT 5'PFS GGU 3'PFS UGC (mixed)
# RNA 1: CACCCGUGCAAAAUUGCAGGGGUCUAAAACCUUCUCCAAAUUGUUUCAUCCU
# RNA 2: GGGAAUGGAUCCACAUCUACGAAUUCGGUAGGAUGAAACAAUUUGGAGAAGUGCAGAUCGGAAGAGCACACGU
# B19: target 2 MT 5'PFS AAU 3'PFS ACU (mixed)
# RNA 1: CACCCGUGCAAAAUUGCAGGGGUCUAAAACCUUCUCCAAAUUGUUUCAUCCU
# RNA 2: GGGAAUGGAUCCACAUCUACGAAUUCAAUAGGAUGAAACAAUUUGGAGAAGACUAGAUCGGAAGAGCACACGU
# B20: target 2 MT 5'PFS GUC 3'PFS CGC (mixed)
# RNA 1: CACCCGUGCAAAAUUGCAGGGGUCUAAAACCUUCUCCAAAUUGUUUCAUCCU
# RNA 2: GGGAAUGGAUCCACAUCUACGAAUUCGUCAGGAUGAAACAAUUUGGAGAAGCGCAGAUCGGAAGAGCACACGU
# B21: target 2 MT 5'PFS CUA 3'PFS UUA (mixed)
# RNA 1: CACCCGUGCAAAAUUGCAGGGGUCUAAAACCUUCUCCAAAUUGUUUCAUCCU
# RNA 2: GGGAAUGGAUCCACAUCUACGAAUUCCUAAGGAUGAAACAAUUUGGAGAAGUUAAGAUCGGAAGAGCACACGU
# B22: target 2 MT 5'PFS CUG 3'PFS UCU (mixed)
# RNA 1: CACCCGUGCAAAAUUGCAGGGGUCUAAAACCUUCUCCAAAUUGUUUCAUCCU
# RNA 2: GGGAAUGGAUCCACAUCUACGAAUUCCUGAGGAUGAAACAAUUUGGAGAAGUCUAGAUCGGAAGAGCACACGU
# B23: target 2 MT 5'PFS CUG 3'PFS UCC (mixed)
# RNA 1: CACCCGUGCAAAAUUGCAGGGGUCUAAAACCUUCUCCAAAUUGUUUCAUCCU
# RNA 2: GGGAAUGGAUCCACAUCUACGAAUUCCUGAGGAUGAAACAAUUUGGAGAAGUCCAGAUCGGAAGAGCACACGU
# B24: target 2 MT 5'PFS CUA 3'PFS UUC (mixed)
# RNA 1: CACCCGUGCAAAAUUGCAGGGGUCUAAAACCUUCUCCAAAUUGUUUCAUCCU
# RNA 2: GGGAAUGGAUCCACAUCUACGAAUUCCUAAGGAUGAAACAAUUUGGAGAAGUUCAGAUCGGAAGAGCACACGU
# B25: target 2 MT 5'PFS GUC 3'PFS CGG (mixed)
# RNA 1: CACCCGUGCAAAAUUGCAGGGGUCUAAAACCUUCUCCAAAUUGUUUCAUCCU
# RNA 2: GGGAAUGGAUCCACAUCUACGAAUUCGUCAGGAUGAAACAAUUUGGAGAAGCGGAGAUCGGAAGAGCACACGU
# B26: target 2 MT 5'PFS UGU 3'PFS ACG (mixed)
# RNA 1: CACCCGUGCAAAAUUGCAGGGGUCUAAAACCUUCUCCAAAUUGUUUCAUCCU
# RNA 2: GGGAAUGGAUCCACAUCUACGAAUUCUGUAGGAUGAAACAAUUUGGAGAAGACGAGAUCGGAAGAGCACACGU
# B27: target 2 MT 5'PFS AUA 3'PFS ACG (mixed)
# RNA 1: CACCCGUGCAAAAUUGCAGGGGUCUAAAACCUUCUCCAAAUUGUUUCAUCCU
# RNA 2: GGGAAUGGAUCCACAUCUACGAAUUCAUAAGGAUGAAACAAUUUGGAGAAGACGAGAUCGGAAGAGCACACGU
# B28: target 2 MT 5'PFS GGU 3'PFS UGU (mixed)
# RNA 1: CACCCGUGCAAAAUUGCAGGGGUCUAAAACCUUCUCCAAAUUGUUUCAUCCU
# RNA 2: GGGAAUGGAUCCACAUCUACGAAUUCGGUAGGAUGAAACAAUUUGGAGAAGUGUAGAUCGGAAGAGCACACGU
# Molecular target: T1, EsCas13d, nuclease-dead
# Assay: crRNA (strand 1, pre-loaded); Mg2+; 40 mM Tris-HCl pH 7.5, 150 mM NaCl, 6 mM MgCl2, 1 mM DTT, 0.1% Tween-20, 0.2 mg/ml BSA; 25 C; 10 min per concentration, then washed
# Conditions: tags: His6-TwinStrep-SUMO cleaved; N-terminal SNAP kept (SNAP-Surface 488); label: 3' end held by stalled T7 RNA polymerase
row,Binder,Kd [nM]
1,B1,9.5 ± 0.32
2,B2,58 ± 20
3,B3,12.5 ± 1
4,B4,13.3 ± 0.7
5,B5,3.4 ± 0.6
6,B6,5 ± 0.6
7,B7,3.1 ± 0.4
8,B8,34 ± 7
9,B9,8.7 ± 0.7
10,B10,10.7 ± 1.8
11,B11,6.9 ± 1.6
12,B12,6 ± 1.9
13,B13,4.5 ± 0.6
14,B14,17.5 ± 2.8
15,B15,5.5 ± 0.8
16,B16,3.6 ± 0.5
17,B17,10.7 ± 1.4
18,B18,23 ± 4
19,B19,6.2 ± 0.7
20,B20,16.9 ± 1.3
21,B21,1.88 ± 0.26
22,B22,6.3 ± 0.4
23,B23,6.1 ± 0.5
24,B24,3.1 ± 0.9
25,B25,18.3 ± 2.1
26,B26,15 ± 1.9
27,B27,14 ± 5
28,B28,33 ± 4

# Source: paper PMC10786891, “Massively parallel profiling of RNA-targeting CRISPR-Cas13d”
